# Experimental data as given in paper PMC3035472.
# Target: sigma A (primary sigma factor), wild type, refolded from inclusion bodies (Bacillus subtilis, UniProt P06224 1-371)
# Experiment: EMSA
# Chain of sigma A (primary sigma factor), wild type, refolded from inclusion bodies (P06224 whole entry): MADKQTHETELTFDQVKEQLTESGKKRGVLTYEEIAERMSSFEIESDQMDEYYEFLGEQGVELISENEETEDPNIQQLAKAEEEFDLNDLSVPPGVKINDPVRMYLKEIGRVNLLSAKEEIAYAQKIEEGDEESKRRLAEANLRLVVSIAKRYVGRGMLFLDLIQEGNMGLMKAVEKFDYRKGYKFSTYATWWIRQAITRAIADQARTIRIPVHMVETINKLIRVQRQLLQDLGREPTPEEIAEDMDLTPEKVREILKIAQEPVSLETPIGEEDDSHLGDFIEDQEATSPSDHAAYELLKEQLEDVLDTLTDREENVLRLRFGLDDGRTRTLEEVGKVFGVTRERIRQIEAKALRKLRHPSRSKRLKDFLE
binder,measurement,value
tgbp3 cDNA fragment (non-promoter) (dsDNA) DNA 1: AGACTACCATGGCTCTAAACACTGACACACTATGCATCATTCTGTTCATACTAATATTAGGCATCCTATATAATATACTTCAACAGCATCTGCCCCCACCATGTGAAATAATAATAAACGGGCACACTATATCCATTAGGGGCAACTGCTACCACACCACCTCCAGCCTCGAGCACCAC DNA 2: GTGGTGCTCGAGGCTGGAGGTGGTGTGGTAGCAGTTGCCCCTAATGGATATAGTGTGCCCGTTTATTATTATTTCACATGGTGGGGGCAGATGCTGTTGAAGTATATTATATAGGATGCCTAATATTAGTATGAACAGAATGATGCATAGTGTGTCAGTGTTTAGAGCCATGGTAGTCT,binding result,binds
